Test results as given in publication doi:10.1101/2022.08.30.505785 (bioRxiv, 2022).

Target: the molecule itself
Assay: SAXS

B1: Oxalyl-CoA synthetase from Saccharomyces cerevisiae, K352D variant (enzyme, S. cerevisiae, UniProt P38137 1-543, looked up)
chain: MTSAATVTASFNDTFSVSDNVAVIVPETDTQVTYRDLSHMVGHFQTMFTNPNSPLYGAVFRQDTVAISMRNGLEFIVAFLGATMDAKIGAPLNPNYKEKEFNFYLNDLKSKAICVPKGTTKLQSSEILKSASTFGCFIVELAFDATRFRVEYDIYSPEDNYKRVIYRSLNNAKFVNTNPVKFPGFARSSDVALILHTSGTTSTPKTVPLLHLNIVRSTLNIANTYKLTPLDRSYVVMPLFHVHGLIGVLLSTFRTQGSVVVPDGFHPKLFWDQFVKYNCNWFSCVPTISMIMLNMPKPNPFPHIRFIRSCSSALAPATFHKLEKEFNAPVLEAYAMTEASHQMTSNNLPPGDRKPGTVGQPQGVTVVILDDNDNVLPPGKVGEVSIRGENVTLGYANNPKANKENFTKRENYFRTGDQGYFDPEGFLVLTGRIKELINRGGEKISPIELDGIMLSHPKIDEAVAFGVPDDMYGQVVQAAIVLKKGEKMTYEELVNFLKKHLASFKIPTKVYFVDKLPKTATGKIQRRVIAETFAKSSRNKSKL
- stoichiometry N: 2
